Measured values taken from patent US20150064134A1.

Columns and labels:
Test in all cases: cell-based or functional assay
AMPKα2(h) (human) = AMPKα2(h) (human) (UniProt P54646)
Abl(h) (human) = Abl(h) (human) (UniProt P00519)
Aurora-B(h) (human) = Aurora-B(h) (human) (UniProt Q96GD4)
BRK(h) (human) = BRK(h) (human) (UniProt Q13882)
[1] = molecular target: CDK7/cyclinH/MAT1(h) (human) (UniProt P50613)
EphA7(h) (human) = EphA7(h) (human) (UniProt Q15375)
Flt3(D835Y)(h) (human) = molecular target: T1, Flt3(D835Y)(h) (human) (UniProt P36888)
T1 sequence (looked up): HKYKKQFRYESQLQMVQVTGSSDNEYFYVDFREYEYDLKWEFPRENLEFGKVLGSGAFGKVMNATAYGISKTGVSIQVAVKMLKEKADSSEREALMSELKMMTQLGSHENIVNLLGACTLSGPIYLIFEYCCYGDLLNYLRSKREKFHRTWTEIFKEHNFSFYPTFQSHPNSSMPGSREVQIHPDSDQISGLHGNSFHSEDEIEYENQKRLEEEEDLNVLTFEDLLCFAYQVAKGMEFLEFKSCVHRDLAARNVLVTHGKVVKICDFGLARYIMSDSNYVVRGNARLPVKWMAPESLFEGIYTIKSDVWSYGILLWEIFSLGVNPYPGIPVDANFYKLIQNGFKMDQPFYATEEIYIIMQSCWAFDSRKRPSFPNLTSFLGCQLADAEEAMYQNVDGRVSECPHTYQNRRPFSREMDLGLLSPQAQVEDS

IRR(h) (human) = IRR(h) (human) (UniProt P14616)
Itk(h) (human) = molecular target: T2, Itk(h) (human) (UniProt Q08881)
T2 sequence (looked up): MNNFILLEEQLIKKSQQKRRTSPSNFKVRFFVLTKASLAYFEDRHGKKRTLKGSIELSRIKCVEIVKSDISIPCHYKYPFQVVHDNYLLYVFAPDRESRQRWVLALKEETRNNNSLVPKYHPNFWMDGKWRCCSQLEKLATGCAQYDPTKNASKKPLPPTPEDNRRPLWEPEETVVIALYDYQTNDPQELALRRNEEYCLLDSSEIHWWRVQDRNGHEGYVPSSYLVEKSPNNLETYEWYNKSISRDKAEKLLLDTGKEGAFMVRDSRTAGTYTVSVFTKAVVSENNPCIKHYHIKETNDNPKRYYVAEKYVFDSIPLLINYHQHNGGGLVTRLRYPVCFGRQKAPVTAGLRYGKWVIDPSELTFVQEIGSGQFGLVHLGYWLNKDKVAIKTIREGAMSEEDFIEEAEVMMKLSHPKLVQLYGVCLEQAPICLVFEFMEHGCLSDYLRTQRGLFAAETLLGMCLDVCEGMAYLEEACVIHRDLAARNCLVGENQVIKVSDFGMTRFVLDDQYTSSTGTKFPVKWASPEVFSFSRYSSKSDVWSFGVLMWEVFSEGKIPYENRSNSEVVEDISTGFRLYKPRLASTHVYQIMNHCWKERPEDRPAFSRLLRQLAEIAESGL

MARK1(h) (human) = MARK1(h) (human) (UniProt Q9P0L2)
MELK(h) (human) = MELK(h) (human) (UniProt Q14680)
MLK1(h) (human) = MLK1(h) (human) (UniProt P80192)
MST1(h) (human) = molecular target: T3, MST1(h) (human) (UniProt Q13043)
T3 sequence (looked up): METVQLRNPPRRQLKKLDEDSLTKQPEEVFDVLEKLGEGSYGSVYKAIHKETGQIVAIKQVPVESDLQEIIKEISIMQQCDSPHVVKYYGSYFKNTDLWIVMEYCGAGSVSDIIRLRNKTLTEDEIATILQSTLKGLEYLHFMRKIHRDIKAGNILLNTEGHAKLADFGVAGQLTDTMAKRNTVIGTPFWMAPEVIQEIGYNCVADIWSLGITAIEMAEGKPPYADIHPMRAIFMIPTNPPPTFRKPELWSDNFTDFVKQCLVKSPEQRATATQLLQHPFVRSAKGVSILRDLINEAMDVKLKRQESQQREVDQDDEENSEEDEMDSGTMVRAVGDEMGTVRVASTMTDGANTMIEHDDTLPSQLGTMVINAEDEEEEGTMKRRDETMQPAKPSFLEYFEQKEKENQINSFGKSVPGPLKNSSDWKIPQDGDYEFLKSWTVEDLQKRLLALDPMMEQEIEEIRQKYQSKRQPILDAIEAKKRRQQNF

PDK1(h) (human) = molecular target: T4, PDK1(h) (human) (UniProt O15530)
T4 sequence (looked up): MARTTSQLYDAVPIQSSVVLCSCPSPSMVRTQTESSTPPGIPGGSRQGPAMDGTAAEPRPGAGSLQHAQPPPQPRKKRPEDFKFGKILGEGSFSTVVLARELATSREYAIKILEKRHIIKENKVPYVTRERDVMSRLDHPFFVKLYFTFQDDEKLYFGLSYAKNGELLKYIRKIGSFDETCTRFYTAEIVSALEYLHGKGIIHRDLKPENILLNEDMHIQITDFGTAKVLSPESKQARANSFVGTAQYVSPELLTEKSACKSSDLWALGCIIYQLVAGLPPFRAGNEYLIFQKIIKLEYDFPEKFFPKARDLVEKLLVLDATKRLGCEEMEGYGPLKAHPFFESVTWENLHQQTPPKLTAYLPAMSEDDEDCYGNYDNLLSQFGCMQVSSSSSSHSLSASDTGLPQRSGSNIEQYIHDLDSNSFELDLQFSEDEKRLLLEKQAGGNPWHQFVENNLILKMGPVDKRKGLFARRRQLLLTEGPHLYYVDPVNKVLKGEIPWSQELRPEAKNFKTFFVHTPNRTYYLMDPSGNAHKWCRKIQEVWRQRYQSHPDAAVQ

PKCι(h) (human) = PKCι(h) (human) (UniProt P41743)
PKG1α(h) (human) = PKG1α(h) (human) (UniProt Q13976)
Rsk1(h) (human) = Rsk1(h) (human) (UniProt Q15418)
SRPK1(h) (human) = SRPK1(h) (human) (UniProt Q96SB4)
Src(T341M)(h) (human) = Src(T341M)(h) (human) (UniProt P12931)
WNK3(h) (human) = WNK3(h) (human) (UniProt Q9BYP7)
cSRC(h) (human) = cSRC(h) (human) (UniProt P12931)

Sequence of Aurora-B(h) (human) (Q96GD4 whole entry): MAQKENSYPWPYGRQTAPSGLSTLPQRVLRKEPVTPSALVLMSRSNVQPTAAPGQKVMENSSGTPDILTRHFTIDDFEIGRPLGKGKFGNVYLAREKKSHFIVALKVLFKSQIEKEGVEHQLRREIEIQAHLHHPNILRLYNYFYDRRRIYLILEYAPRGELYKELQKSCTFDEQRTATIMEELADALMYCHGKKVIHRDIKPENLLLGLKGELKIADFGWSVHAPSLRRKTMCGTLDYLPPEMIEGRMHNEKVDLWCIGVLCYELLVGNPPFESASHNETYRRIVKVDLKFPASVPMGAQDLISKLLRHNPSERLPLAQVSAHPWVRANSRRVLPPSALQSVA
Sequence of IRR(h) (human) (P14616 944-1297 limits assumed): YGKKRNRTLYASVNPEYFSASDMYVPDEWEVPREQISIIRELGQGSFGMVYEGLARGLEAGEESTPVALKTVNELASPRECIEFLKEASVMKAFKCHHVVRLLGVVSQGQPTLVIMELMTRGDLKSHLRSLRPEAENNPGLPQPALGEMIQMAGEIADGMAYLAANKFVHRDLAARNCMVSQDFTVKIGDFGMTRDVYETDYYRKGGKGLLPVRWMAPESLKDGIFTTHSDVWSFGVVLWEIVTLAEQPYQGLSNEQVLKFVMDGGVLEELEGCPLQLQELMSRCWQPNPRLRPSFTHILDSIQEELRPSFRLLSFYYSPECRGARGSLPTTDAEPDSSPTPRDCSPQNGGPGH
Sequence of CDK7/cyclinH/MAT1(h) (human) (P50613 whole entry, chain 1 of 3): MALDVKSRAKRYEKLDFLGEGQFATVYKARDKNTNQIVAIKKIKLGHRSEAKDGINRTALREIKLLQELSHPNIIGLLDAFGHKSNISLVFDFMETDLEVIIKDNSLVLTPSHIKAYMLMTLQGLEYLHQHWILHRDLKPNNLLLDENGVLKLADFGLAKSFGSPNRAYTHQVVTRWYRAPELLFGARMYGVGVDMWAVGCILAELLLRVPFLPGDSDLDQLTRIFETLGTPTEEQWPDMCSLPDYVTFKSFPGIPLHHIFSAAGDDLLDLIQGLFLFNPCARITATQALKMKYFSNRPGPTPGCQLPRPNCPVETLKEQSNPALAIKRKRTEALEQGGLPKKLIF
Sequence of CDK7/cyclinH/MAT1(h) (human) (P51946 whole entry, chain 2 of 3, further chain): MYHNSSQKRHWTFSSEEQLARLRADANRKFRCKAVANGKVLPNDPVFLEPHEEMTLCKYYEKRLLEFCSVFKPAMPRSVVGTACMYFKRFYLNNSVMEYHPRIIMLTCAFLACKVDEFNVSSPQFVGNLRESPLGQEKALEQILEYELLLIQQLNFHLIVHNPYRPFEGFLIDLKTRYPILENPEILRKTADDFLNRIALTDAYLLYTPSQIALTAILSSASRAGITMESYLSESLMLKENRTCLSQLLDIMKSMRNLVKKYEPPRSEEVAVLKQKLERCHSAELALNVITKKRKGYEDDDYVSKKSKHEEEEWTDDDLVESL
Sequence of CDK7/cyclinH/MAT1(h) (human) (P51948 whole entry, chain 3 of 3, further chain): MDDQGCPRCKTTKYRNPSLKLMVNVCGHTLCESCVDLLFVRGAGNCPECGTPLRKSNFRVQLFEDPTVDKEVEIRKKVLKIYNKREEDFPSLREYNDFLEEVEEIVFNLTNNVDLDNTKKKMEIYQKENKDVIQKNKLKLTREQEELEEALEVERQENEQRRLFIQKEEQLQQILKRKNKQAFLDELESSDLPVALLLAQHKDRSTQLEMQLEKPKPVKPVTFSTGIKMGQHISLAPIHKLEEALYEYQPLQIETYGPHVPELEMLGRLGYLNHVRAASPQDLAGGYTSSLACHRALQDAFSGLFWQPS
Sequence of Rsk1(h) (human) (Q15418 whole entry): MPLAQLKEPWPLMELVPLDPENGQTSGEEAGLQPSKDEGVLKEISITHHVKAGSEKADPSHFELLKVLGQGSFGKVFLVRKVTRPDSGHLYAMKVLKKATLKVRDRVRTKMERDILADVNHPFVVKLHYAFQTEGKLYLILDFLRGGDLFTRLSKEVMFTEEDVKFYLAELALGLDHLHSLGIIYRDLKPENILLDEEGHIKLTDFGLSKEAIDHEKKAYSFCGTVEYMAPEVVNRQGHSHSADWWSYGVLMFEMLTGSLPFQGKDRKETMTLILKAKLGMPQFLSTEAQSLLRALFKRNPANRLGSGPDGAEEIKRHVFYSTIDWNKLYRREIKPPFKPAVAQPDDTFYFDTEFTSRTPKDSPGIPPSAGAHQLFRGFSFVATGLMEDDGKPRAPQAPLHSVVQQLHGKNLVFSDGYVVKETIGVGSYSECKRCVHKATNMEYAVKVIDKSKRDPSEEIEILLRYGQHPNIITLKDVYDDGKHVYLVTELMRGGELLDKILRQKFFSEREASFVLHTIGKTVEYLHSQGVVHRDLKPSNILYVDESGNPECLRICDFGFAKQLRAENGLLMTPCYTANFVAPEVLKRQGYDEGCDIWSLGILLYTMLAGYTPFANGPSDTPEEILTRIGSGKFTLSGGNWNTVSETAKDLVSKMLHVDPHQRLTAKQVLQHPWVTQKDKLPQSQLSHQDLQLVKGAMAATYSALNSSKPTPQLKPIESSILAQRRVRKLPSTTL
Sequence of Abl(h) (human) (P00519 27-1130 limits assumed): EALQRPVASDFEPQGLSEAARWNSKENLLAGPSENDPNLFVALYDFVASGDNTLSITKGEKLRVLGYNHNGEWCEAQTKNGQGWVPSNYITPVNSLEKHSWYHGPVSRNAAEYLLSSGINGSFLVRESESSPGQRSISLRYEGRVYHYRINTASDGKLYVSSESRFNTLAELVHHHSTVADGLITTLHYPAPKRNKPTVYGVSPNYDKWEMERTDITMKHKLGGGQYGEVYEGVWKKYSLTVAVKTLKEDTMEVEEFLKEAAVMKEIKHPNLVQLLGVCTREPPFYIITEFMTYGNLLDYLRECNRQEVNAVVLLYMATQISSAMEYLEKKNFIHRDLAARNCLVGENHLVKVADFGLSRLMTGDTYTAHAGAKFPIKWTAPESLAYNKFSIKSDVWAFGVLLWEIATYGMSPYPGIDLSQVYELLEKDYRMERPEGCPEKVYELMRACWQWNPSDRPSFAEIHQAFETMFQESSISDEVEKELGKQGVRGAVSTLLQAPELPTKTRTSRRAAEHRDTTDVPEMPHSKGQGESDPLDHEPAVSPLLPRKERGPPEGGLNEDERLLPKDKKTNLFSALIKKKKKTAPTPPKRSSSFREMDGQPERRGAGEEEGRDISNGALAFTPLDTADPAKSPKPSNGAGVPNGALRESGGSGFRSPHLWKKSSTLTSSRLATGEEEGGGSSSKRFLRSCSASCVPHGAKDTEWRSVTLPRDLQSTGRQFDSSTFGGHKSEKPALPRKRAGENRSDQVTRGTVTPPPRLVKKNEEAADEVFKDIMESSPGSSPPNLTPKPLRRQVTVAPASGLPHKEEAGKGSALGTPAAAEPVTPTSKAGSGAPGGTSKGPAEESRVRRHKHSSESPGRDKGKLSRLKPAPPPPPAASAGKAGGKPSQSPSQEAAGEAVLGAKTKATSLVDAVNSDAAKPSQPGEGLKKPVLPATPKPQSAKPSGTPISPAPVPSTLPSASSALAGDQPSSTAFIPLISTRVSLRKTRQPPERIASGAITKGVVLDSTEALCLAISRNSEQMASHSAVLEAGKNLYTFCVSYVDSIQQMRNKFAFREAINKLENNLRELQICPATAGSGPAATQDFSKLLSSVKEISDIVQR

| Substance | % activity at 100 µM (AMPKα2(h) (human)) [%] | % activity at 100 µM (Abl(h) (human)) [%] | % activity at 100 µM (Aurora-B(h) (human)) [%] | % activity at 100 µM (BRK(h) (human)) [%] | % activity at 100 µM [1] [%] | % activity at 100 µM (EphA7(h) (human)) [%] | % activity at 100 µM (Flt3(D835Y)(h) (human)) [%] | % activity at 100 µM (IRR(h) (human)) [%] | % activity at 100 µM (Itk(h) (human)) [%] | % activity at 100 µM (MARK1(h) (human)) [%] | % activity at 100 µM (MELK(h) (human)) [%] | % activity at 100 µM (MLK1(h) (human)) [%] | % activity at 100 µM (MST1(h) (human)) [%] | % activity at 100 µM (PDK1(h) (human)) [%] | % activity at 100 µM (PKCι(h) (human)) [%] | % activity at 100 µM (PKG1α(h) (human)) [%] | % activity at 100 µM (Rsk1(h) (human)) [%] | % activity at 100 µM (SRPK1(h) (human)) [%] | % activity at 100 µM (Src(T341M)(h) (human)) [%] | % activity at 100 µM (WNK3(h) (human)) [%] | further results |
| --- | --- | --- | --- | --- | --- | --- | --- | --- | --- | --- | --- | --- | --- | --- | --- | --- | --- | --- | --- | --- | --- |
| MMI-0300 (peptide) | 54 | 69 | 128 | 35 | 65 | 159 | 80 | 8 | 77 | 132 | 16 | 40 | 14 | 135 | 68 | 64 | 46 | 90 | 70 | 77 | % activity at 100 µM (cSRC(h) (human)): 26% |
| MMI-0400 (peptide) | 58 | 84 | 150 | 18 | 47 | 222 | 71 | 8 | 63 | 120 | 17 | 33 | 6 | 159 | 46 | 58 | 54 | 96 | 76 | 74 | % activity at 100 µM (cSRC(h) (human)): 14% |
| MMI-0500 (peptide) | 9 | 16 | 5 | 41 | 15 | 189 | 65 | 10 | 7 | 110 | 0 | 43 | 3 | 178 | 7 | 25 | 34 | 80 | 59 | 9 | % activity at 100 µM (cSRC(h) (human)): 30% |
